# Laboratory results reported in patent publication US20140213531A1 (POLYPHOR, published 2014).
# Bridges are numbered along the chain shown (N, C = ends). [ ]: non-standard residue; d: D form. Nle = CCCC[C@H](N)C(=O)O; Abu = CC[C@H](N)C(=O)O
# T1: Chymase, from human skin (human, UniProt P23946 22-247)
# T1 sequence (looked up): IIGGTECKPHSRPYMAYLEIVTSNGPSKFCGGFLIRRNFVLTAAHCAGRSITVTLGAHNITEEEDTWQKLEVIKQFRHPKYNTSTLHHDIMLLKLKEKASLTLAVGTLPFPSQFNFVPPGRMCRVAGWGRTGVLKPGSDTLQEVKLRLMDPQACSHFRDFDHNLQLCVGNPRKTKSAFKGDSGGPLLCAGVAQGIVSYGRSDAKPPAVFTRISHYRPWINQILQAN
# T2: CathepsinG, from human neutrophils (human, UniProt P08311 21-244)
# T2 sequence (looked up): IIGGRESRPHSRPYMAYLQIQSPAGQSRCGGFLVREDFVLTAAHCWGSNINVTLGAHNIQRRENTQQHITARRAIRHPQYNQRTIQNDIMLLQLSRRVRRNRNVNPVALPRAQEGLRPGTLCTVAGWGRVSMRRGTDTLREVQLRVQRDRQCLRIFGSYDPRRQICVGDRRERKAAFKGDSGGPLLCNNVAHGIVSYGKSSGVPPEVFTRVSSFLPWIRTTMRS
# T3: Elastase from human neutrophils (human, UniProt P08246 30-247, limits assumed)
# T3 sequence (looked up): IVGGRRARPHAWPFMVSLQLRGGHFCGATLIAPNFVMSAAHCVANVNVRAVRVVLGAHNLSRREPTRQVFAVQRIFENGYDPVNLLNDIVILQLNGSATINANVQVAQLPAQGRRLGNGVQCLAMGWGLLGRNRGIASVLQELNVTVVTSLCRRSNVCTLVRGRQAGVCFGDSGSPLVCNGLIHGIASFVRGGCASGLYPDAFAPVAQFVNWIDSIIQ
# B1: Example 10 (peptide)
# peptide: XCTKSDPPICS
# HELM: PEPTIDE1{[Nle].C.T.K.S.D.P.P.I.C.S.[dP].P}$PEPTIDE1,PEPTIDE1,2:R3-10:R3|PEPTIDE1,PEPTIDE1,1:R1-13:R2$$$V2.0
# SMILES: CCCC[C@@H]1NC(=O)[C@@H]2CCCN2C(=O)[C@H]2CCCN2C(=O)[C@H](CO)NC(=O)[C@@H]2CSSC[C@H](NC1=O)C(=O)N[C@@H]([C@@H](C)O)C(=O)N[C@@H](CCCCN)C(=O)N[C@@H](CO)C(=O)N[C@@H](CC(=O)O)C(=O)N1CCC[C@H]1C(=O)N1CCC[C@H]1C(=O)N[C@@H]([C@@H](C)CC)C(=O)N2
# B2: Example 13 (peptide)
# peptide: XCTKSDPPICR
# HELM: PEPTIDE1{[O=C([C@H](Cc1ccccc1Cl)N[*:1])[*:2]].C.T.K.S.D.P.P.I.C.R.[dP].P}$PEPTIDE1,PEPTIDE1,2:R3-10:R3|PEPTIDE1,PEPTIDE1,1:R1-13:R2$$$V2.0
# SMILES: CC[C@H](C)[C@@H]1NC(=O)[C@@H]2CCCN2C(=O)[C@@H]2CCCN2C(=O)[C@H](CC(=O)O)NC(=O)[C@H](CO)NC(=O)[C@H](CCCCN)NC(=O)[C@H]([C@@H](C)O)NC(=O)[C@@H]2CSSC[C@H](NC1=O)C(=O)N[C@@H](CCCNC(=N)N)C(=O)N1CCC[C@@H]1C(=O)N1CCC[C@H]1C(=O)N[C@@H](Cc1ccccc1Cl)C(=O)N2
# B3: Example 25 (peptide)
# peptide: FCTKXDPPICS
# HELM: PEPTIDE1{F.C.T.K.[NC[C@H](N[*:1])C(=O)[*:2]].D.P.P.I.C.S.[dP].P}$PEPTIDE1,PEPTIDE1,2:R3-10:R3|PEPTIDE1,PEPTIDE1,1:R1-13:R2$$$V2.0
# SMILES: CC[C@H](C)[C@@H]1NC(=O)[C@@H]2CCCN2C(=O)[C@@H]2CCCN2C(=O)[C@H](CC(=O)O)NC(=O)[C@H](CN)NC(=O)[C@H](CCCCN)NC(=O)[C@H]([C@@H](C)O)NC(=O)[C@@H]2CSSC[C@H](NC1=O)C(=O)N[C@@H](CO)C(=O)N1CCC[C@@H]1C(=O)N1CCC[C@H]1C(=O)N[C@@H](Cc1ccccc1)C(=O)N2
# B4: Example 53 (peptide)
# peptide: FCTKSDPPXCS
# HELM: PEPTIDE1{F.C.T.K.S.D.P.P.[Nle].C.S.[dP].P}$PEPTIDE1,PEPTIDE1,2:R3-10:R3|PEPTIDE1,PEPTIDE1,1:R1-13:R2$$$V2.0
# SMILES: CCCC[C@@H]1NC(=O)[C@@H]2CCCN2C(=O)[C@@H]2CCCN2C(=O)[C@H](CC(=O)O)NC(=O)[C@H](CO)NC(=O)[C@H](CCCCN)NC(=O)[C@H]([C@@H](C)O)NC(=O)[C@@H]2CSSC[C@H](NC1=O)C(=O)N[C@@H](CO)C(=O)N1CCC[C@@H]1C(=O)N1CCC[C@H]1C(=O)N[C@@H](Cc1ccccc1)C(=O)N2
# B5: Example 9 (peptide)
# peptide: XCTKSDPPICS
# HELM: PEPTIDE1{[Nc1ccc(C[C@H](N[*:1])C(=O)[*:2])cc1].C.T.K.S.D.P.P.I.C.S.[dP].P}$PEPTIDE1,PEPTIDE1,2:R3-10:R3|PEPTIDE1,PEPTIDE1,1:R1-13:R2$$$V2.0
# SMILES: CC[C@H](C)[C@@H]1NC(=O)[C@@H]2CCCN2C(=O)[C@@H]2CCCN2C(=O)[C@H](CC(=O)O)NC(=O)[C@H](CO)NC(=O)[C@H](CCCCN)NC(=O)[C@H]([C@@H](C)O)NC(=O)[C@@H]2CSSC[C@H](NC1=O)C(=O)N[C@@H](CO)C(=O)N1CCC[C@@H]1C(=O)N1CCC[C@H]1C(=O)N[C@@H](Cc1ccc(N)cc1)C(=O)N2
# B6: Example 71 (peptide)
# peptide: XCTKSDPPXCR
# HELM: PEPTIDE1{[O=C([C@@H](N[*:1])C1CCCCC1)[*:2]].C.T.K.S.D.P.P.[Cha].C.R.[dP].P}$PEPTIDE1,PEPTIDE1,2:R3-10:R3|PEPTIDE1,PEPTIDE1,1:R1-13:R2$$$V2.0
# SMILES: C[C@@H](O)[C@@H]1NC(=O)[C@@H]2CSSC[C@H](NC(=O)[C@H](CC3CCCCC3)NC(=O)[C@@H]3CCCN3C(=O)[C@@H]3CCCN3C(=O)[C@H](CC(=O)O)NC(=O)[C@H](CO)NC(=O)[C@H](CCCCN)NC1=O)C(=O)N[C@@H](CCCNC(=N)N)C(=O)N1CCC[C@@H]1C(=O)N1CCC[C@H]1C(=O)N[C@@H](C1CCCCC1)C(=O)N2
# B7: Example 83 (peptide)
# peptide: XCTASXPPQCY
# HELM: PEPTIDE1{[Nle].C.T.A.S.[CC(C)CC[C@H](N[*:1])C(=O)[*:2]].P.P.Q.C.Y.[dP].P}$PEPTIDE1,PEPTIDE1,2:R3-10:R3|PEPTIDE1,PEPTIDE1,1:R1-13:R2$$$V2.0
# SMILES: CCCC[C@@H]1NC(=O)[C@@H]2CCCN2C(=O)[C@H]2CCCN2C(=O)[C@H](Cc2ccc(O)cc2)NC(=O)[C@@H]2CSSC[C@H](NC1=O)C(=O)N[C@@H]([C@@H](C)O)C(=O)N[C@@H](C)C(=O)N[C@@H](CO)C(=O)N[C@@H](CCC(C)C)C(=O)N1CCC[C@H]1C(=O)N1CCC[C@H]1C(=O)N[C@@H](CCC(N)=O)C(=O)N2
# B8: Example 76 (peptide)
# peptide: ICTASLPPQCY
# HELM: PEPTIDE1{I.C.T.A.S.L.P.P.Q.C.Y.[dP].P}$PEPTIDE1,PEPTIDE1,2:R3-10:R3|PEPTIDE1,PEPTIDE1,1:R1-13:R2$$$V2.0
# SMILES: CC[C@H](C)[C@@H]1NC(=O)[C@@H]2CCCN2C(=O)[C@H]2CCCN2C(=O)[C@H](Cc2ccc(O)cc2)NC(=O)[C@@H]2CSSC[C@H](NC1=O)C(=O)N[C@@H]([C@@H](C)O)C(=O)N[C@@H](C)C(=O)N[C@@H](CO)C(=O)N[C@@H](CC(C)C)C(=O)N1CCC[C@H]1C(=O)N1CCC[C@H]1C(=O)N[C@@H](CCC(N)=O)C(=O)N2
# B9: Example 80 (peptide)
# peptide: XCTASXPPQCY
# HELM: PEPTIDE1{[Nle].C.T.A.S.[CCCCCC[C@H](N[*:1])C(=O)[*:2]].P.P.Q.C.Y.[dP].P}$PEPTIDE1,PEPTIDE1,2:R3-10:R3|PEPTIDE1,PEPTIDE1,1:R1-13:R2$$$V2.0
# SMILES: CCCCCC[C@@H]1NC(=O)[C@H](CO)NC(=O)[C@H](C)NC(=O)[C@H]([C@@H](C)O)NC(=O)[C@@H]2CSSC[C@H](NC(=O)[C@H](CCC(N)=O)NC(=O)[C@@H]3CCCN3C(=O)[C@@H]3CCCN3C1=O)C(=O)N[C@@H](Cc1ccc(O)cc1)C(=O)N1CCC[C@@H]1C(=O)N1CCC[C@H]1C(=O)N[C@@H](CCCC)C(=O)N2
# B10: Example 77 (peptide)
# peptide: XCTTSIPPYCY
# HELM: PEPTIDE1{[Nle].C.T.T.S.I.P.P.Y.C.Y.[dP].P}$PEPTIDE1,PEPTIDE1,2:R3-10:R3|PEPTIDE1,PEPTIDE1,1:R1-13:R2$$$V2.0
# SMILES: CCCC[C@@H]1NC(=O)[C@@H]2CCCN2C(=O)[C@H]2CCCN2C(=O)[C@H](Cc2ccc(O)cc2)NC(=O)[C@@H]2CSSC[C@H](NC1=O)C(=O)N[C@@H]([C@@H](C)O)C(=O)N[C@@H]([C@@H](C)O)C(=O)N[C@@H](CO)C(=O)N[C@@H]([C@@H](C)CC)C(=O)N1CCC[C@H]1C(=O)N1CCC[C@H]1C(=O)N[C@@H](Cc1ccc(O)cc1)C(=O)N2
# B11: Example 79 (peptide)
# peptide: XCTASXPPQCY
# HELM: PEPTIDE1{[Nle].C.T.A.S.[Nle].P.P.Q.C.Y.[dP].P}$PEPTIDE1,PEPTIDE1,2:R3-10:R3|PEPTIDE1,PEPTIDE1,1:R1-13:R2$$$V2.0
# SMILES: CCCC[C@@H]1NC(=O)[C@@H]2CCCN2C(=O)[C@H]2CCCN2C(=O)[C@H](Cc2ccc(O)cc2)NC(=O)[C@@H]2CSSC[C@H](NC1=O)C(=O)N[C@@H]([C@@H](C)O)C(=O)N[C@@H](C)C(=O)N[C@@H](CO)C(=O)N[C@@H](CCCC)C(=O)N1CCC[C@H]1C(=O)N1CCC[C@H]1C(=O)N[C@@H](CCC(N)=O)C(=O)N2
# Target: T1, Chymase, from human skin
# Assay: cell-based or functional assay
row,% inhibition at 100 µM,Binder
1,9.4%,B1
2,19.9%,B2
3,10%,B3
4,12.7%,B4

# Target: Trypsin, Iodination grade, from human pancreas (human, UniProt P07477 24-247)
# Assay: cell-based or functional assay
row,% inhibition at 100 µM,Binder
1,89.9%,B1
2,86%,cyclo(FCTKSDPPICS[dP]L) (disulfide 2-10) [Example 74]
3,95%,B2
4,89.3%,B3
5,88.1%,B5
6,95%,B4

# Target: T2, CathepsinG, from human neutrophils
# Assay: cell-based or functional assay
row,IC50,Binder
1,75 nmol,B1
2,70 nmol,B6
3,91 nmol,cyclo(FCTKSDPPICS[dP]L) (disulfide 2-10) [Example 74]
4,91 nmol,cyclo(FCTKSDPPICS[dP]L) (disulfide 2-10) [Example 51]
5,100 nmol,B2
6,102 nmol,B3
7,105 nmol,B5
8,87 nmol,cyclo(FCTKSDPPICS[dT]P) (disulfide 2-10) [Example 72]
9,56 nmol,B4

# Target: T3, Elastase from human neutrophils
# Assay: cell-based or functional assay
% inhibition at 100 µM,IC50,Binder
0.3%,,B1
,> 100000 nmol,cyclo(FCTKSDPPICS[dP]L) (disulfide 2-10) [Example 74]
,29 nmol,cyclo([Nle]CT[Abu]SIPPQCY[dP]P) (disulfide 2-10) [Example 78]
,43 nmol,B7
,> 100000 nmol,cyclo(FCTKSDPPICS[dP]L) (disulfide 2-10) [Example 51]
8.2%,,B2
3.2%,,B3
,71 nmol,B8
,35 nmol,B9
4.1%,,B5
,68 nmol,B10
,66 nmol,B11
,> 100000 nmol,B4
